Test results published in patent US20130102527A1.
pIC50: −log10 of the molar value.

What was measured:
[1] = target: proteasome β2 subunit (trypsin-like site) in human cells and cell extracts (human) (UniProt Q99436); assay: competition with activity-based probe in living HEK-293 cells, 4 h; Tr-L site
[2] = target: proteasome β5 subunit (chymotrypsin-like site) in human cells and cell extracts (human) (UniProt P28074); assay: cell-based or functional assay
[3] = target: proteasome β1 subunit (caspase-like site) in human cells and cell extracts (human) (UniProt P28072); assay: cell-based or functional assay
Chain of proteasome β1 subunit (caspase-like site) in human cells and cell extracts (human) (P28072 35-239): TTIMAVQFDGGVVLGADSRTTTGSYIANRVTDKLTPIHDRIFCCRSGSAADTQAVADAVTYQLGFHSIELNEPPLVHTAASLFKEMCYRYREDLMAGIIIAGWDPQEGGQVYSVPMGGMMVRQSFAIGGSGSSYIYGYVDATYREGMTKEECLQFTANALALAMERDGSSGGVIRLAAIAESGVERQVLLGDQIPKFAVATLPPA

[4] = target: chymotrypsin-like site (β5 subunit) of 26S proteasomes purified from rabbit muscle (rabbit) (UniProt G1T4Q9); assay: cell-based or functional assay
Chain of chymotrypsin-like site (β5 subunit) of 26S proteasomes purified from rabbit muscle (rabbit) (G1T4Q9 entry or part of it): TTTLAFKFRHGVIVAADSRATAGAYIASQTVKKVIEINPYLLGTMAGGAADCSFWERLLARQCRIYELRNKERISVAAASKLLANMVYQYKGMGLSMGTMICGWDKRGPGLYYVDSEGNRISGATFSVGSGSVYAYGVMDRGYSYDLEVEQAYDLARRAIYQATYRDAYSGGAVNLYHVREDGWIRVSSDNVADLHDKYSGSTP

[5] = target: trypsin-like site (β2 subunit) of 26S proteasomes purified from rabbit muscle (rabbit) (UniProt G1SWK8); assay: cell-based or functional assay
Chain of trypsin-like site (β2 subunit) of 26S proteasomes purified from rabbit muscle (rabbit) (G1SWK8 entry or part of it): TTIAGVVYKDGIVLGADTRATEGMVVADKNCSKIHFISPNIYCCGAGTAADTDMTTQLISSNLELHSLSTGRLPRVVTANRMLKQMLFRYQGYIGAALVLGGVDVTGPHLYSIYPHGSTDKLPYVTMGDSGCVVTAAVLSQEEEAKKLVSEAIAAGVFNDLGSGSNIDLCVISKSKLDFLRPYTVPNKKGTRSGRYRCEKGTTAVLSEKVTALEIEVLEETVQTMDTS

[6] = target: caspase-like site (β1 subunit) of 26S proteasomes purified from rabbit muscle (rabbit); assay: cell-based or functional assay
[7] = target: proteasome β2 subunit (trypsin-like site) in human cells and cell extracts (human) (UniProt Q99436); assay: cell-based or functional assay
[8] = target: proteasome β5 subunit (chymotrypsin-like site) in human cells and cell extracts (human) (UniProt P28074); assay: competition with activity-based probe in living HEK-293 cells, 4 h; Chym-L site

Chain of proteasome β2 subunit (trypsin-like site) in human cells and cell extracts (human) (Q99436 44-277): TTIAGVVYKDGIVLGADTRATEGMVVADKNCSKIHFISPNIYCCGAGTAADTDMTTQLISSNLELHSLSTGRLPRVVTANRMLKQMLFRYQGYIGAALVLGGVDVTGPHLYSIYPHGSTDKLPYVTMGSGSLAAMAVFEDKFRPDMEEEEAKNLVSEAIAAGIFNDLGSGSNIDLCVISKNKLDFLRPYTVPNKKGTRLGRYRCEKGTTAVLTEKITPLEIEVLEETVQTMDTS
Chain of proteasome β5 subunit (chymotrypsin-like site) in human cells and cell extracts (human) (P28074 60-263): as the sequence (G1T4Q9 entry or part of it) above, with D197E counted along it

A pIC50 [1] of 5.00, an IC50 (µM) for sites: Chym-L; NCI-H929 cells, 6 h, PROTEASOMEGLO [2] of 3.6 µM and an IC50 (µM) for sites: Chym-L; RPMI-8226 cells, 6 h, PROTEASOMEGLO [2] of 7.2 µM were found for “N3-Phe-Phe(4-NH2.TFA)-Leu-Phe(4-CH2NH2.TFA)-VS (51) (peptide)” in this work. For the same substance, the IC50 (µM) for sites: Casp-L; NCI-H929 cells, 6 h, PROTEASOMEGLO [3] was 22 µM, the IC50 (µM) for sites: Casp-L; RPMI-8226 cells, 6 h, PROTEASOMEGLO [3] was > 30 µM and the IC50 (µM) for sites: Chym-L [4] was 3.4 µM. The IC50 (µM) for sites: Tr-L [5] was 0.03 µM, the IC50 (µM) for sites: Casp-L [6] was 30 µM and the IC50 (µM) for sites: Tr-L; NCI-H929 cells, 6 h, PROTEASOMEGLO [7] was 0.11 µM. The IC50 (µM) for sites: Tr-L; RPMI-8226 cells, 6 h, PROTEASOMEGLO [7] was 0.58 µM and the pIC50 [8] was < 4.30.
An Inhibition of active sites (% control): β5; KMS-12-BM, 0.012 µM LU-005, 1 h [2] of 16%, an Inhibition of active sites (% control): β5; KMS-12-BM, 0.037 µM LU-005, 1 h [2] of 48% and an Inhibition of active sites (% control): β5; KMS-12-BM, 0.11 µM LU-005, 1 h [2] of 56% were found for LU-005 (peptide) in this work. The Inhibition of active sites (% control): β5; KMS-12-BM, 0.33 µM LU-005, 1 h [2] was 81%, the Inhibition of active sites (% control): β5; KMS-12-BM, 1.0 µM LU-005, 1 h [2] was 95% and the Inhibition of active sites (% control): β5; KMS-18, 0.037 µM LU-005, 1 h [2] was 14%. For the same substance, the Inhibition of active sites (% control): β5; KMS-18, 0.11 µM LU-005, 1 h [2] was 47%, the Inhibition of active sites (% control): β5; KMS-18, 0.33 µM LU-005, 1 h [2] was 69% and the Inhibition of active sites (% control): β5; KMS-18, 1.0 µM LU-005, 1 h [2] was 85%. The Inhibition of active sites (% control): β5; KMS-18, 3.0 µM LU-005, 1 h [2] was 94%, the Inhibition of active sites (% control): β5; KMS-18, 9.0 µM LU-005, 1 h [2] was 97% and the Inhibition of active sites (% control): β5; MM1.R, 0.004 µM LU-005, 1 h [2] was 17%. For the same substance, the Inhibition of active sites (% control): β5; MM1.R, 0.011 µM LU-005, 1 h [2] was 31%, the Inhibition of active sites (% control): β5; MM1.R, 0.043 µM LU-005, 1 h [2] was 54% and the Inhibition of active sites (% control): β5; MM1.R, 0.11 µM LU-005, 1 h [2] was 76%. The Inhibition of active sites (% control): β5; NCI-H929, 0.0014 µM LU-005, 1 h [2] was 22%, the Inhibition of active sites (% control): β5; NCI-H929, 0.004 µM LU-005, 1 h [2] was 22% and the Inhibition of active sites (% control): β5; NCI-H929, 0.011 µM LU-005, 1 h [2] was 48%. The Inhibition of active sites (% control): β5; NCI-H929, 0.043 µM LU-005, 1 h [2] was 72%, the Inhibition of active sites (% control): β5; NCI-H929, 0.11 µM LU-005, 1 h [2] was 86% and the Inhibition of active sites (% control): β5; RPMI-8226, 0.012 µM LU-005, 1 h [2] was 16%. For the same substance, the Inhibition of active sites (% control): β5; RPMI-8226, 0.037 µM LU-005, 1 h [2] was 45%, the Inhibition of active sites (% control): β5; RPMI-8226, 0.11 µM LU-005, 1 h [2] was 49% and the Inhibition of active sites (% control): β5; RPMI-8226, 0.33 µM LU-005, 1 h [2] was 62%. For the same substance, the Inhibition of active sites (% control): β5; RPMI-8226, 1.0 µM LU-005, 1 h [2] was 82%, the Inhibition of active sites (% control): β1; KMS-12-BM, 0.012 µM LU-005, 1 h [3] was -34% and the Inhibition of active sites (% control): β1; KMS-12-BM, 0.037 µM LU-005, 1 h [3] was -1%. It also gave an Inhibition of active sites (% control): β1; KMS-12-BM, 0.11 µM LU-005, 1 h [3] of 3%, an Inhibition of active sites (% control): β1; KMS-12-BM, 0.33 µM LU-005, 1 h [3] of 6% and an Inhibition of active sites (% control): β1; KMS-12-BM, 1.0 µM LU-005, 1 h [3] of 11%. For the same substance, the Inhibition of active sites (% control): β1; KMS-18, 0.037 µM LU-005, 1 h [3] was 0%, the Inhibition of active sites (% control): β1; KMS-18, 0.11 µM LU-005, 1 h [3] was 21% and the Inhibition of active sites (% control): β1; KMS-18, 0.33 µM LU-005, 1 h [3] was 29%. It also gave an Inhibition of active sites (% control): β1; KMS-18, 1.0 µM LU-005, 1 h [3] of 32%, an Inhibition of active sites (% control): β1; KMS-18, 3.0 µM LU-005, 1 h [3] of 39% and an Inhibition of active sites (% control): β1; KMS-18, 9.0 µM LU-005, 1 h [3] of 42%. It also gave an Inhibition of active sites (% control): β1; MM1.R, 0.004 µM LU-005, 1 h [3] of 6%, an Inhibition of active sites (% control): β1; MM1.R, 0.011 µM LU-005, 1 h [3] of 3% and an Inhibition of active sites (% control): β1; MM1.R, 0.043 µM LU-005, 1 h [3] of 6%. It also gave an Inhibition of active sites (% control): β1; MM1.R, 0.11 µM LU-005, 1 h [3] of 27%, an Inhibition of active sites (% control): β1; NCI-H929, 0.0014 µM LU-005, 1 h [3] of -14% and an Inhibition of active sites (% control): β1; NCI-H929, 0.004 µM LU-005, 1 h [3] of -7%. The Inhibition of active sites (% control): β1; NCI-H929, 0.011 µM LU-005, 1 h [3] was 5.5%, the Inhibition of active sites (% control): β1; NCI-H929, 0.043 µM LU-005, 1 h [3] was 15% and the Inhibition of active sites (% control): β1; NCI-H929, 0.11 µM LU-005, 1 h [3] was 6%. For the same substance, the Inhibition of active sites (% control): β1; RPMI-8226, 0.012 µM LU-005, 1 h [3] was -34%, the Inhibition of active sites (% control): β1; RPMI-8226, 0.037 µM LU-005, 1 h [3] was 16% and the Inhibition of active sites (% control): β1; RPMI-8226, 0.11 µM LU-005, 1 h [3] was 23%. It also gave an Inhibition of active sites (% control): β1; RPMI-8226, 0.33 µM LU-005, 1 h [3] of 37%, an Inhibition of active sites (% control): β1; RPMI-8226, 1.0 µM LU-005, 1 h [3] of 37% and an Inhibition of active sites (% control): β2; KMS-12-BM, 0.012 µM LU-005, 1 h [7] of -21%. For the same substance, the Inhibition of active sites (% control): β2; KMS-12-BM, 0.037 µM LU-005, 1 h [7] was -12%, the Inhibition of active sites (% control): β2; KMS-12-BM, 0.11 µM LU-005, 1 h [7] was 4.7% and the Inhibition of active sites (% control): β2; KMS-12-BM, 0.33 µM LU-005, 1 h [7] was 3%. It also gave an Inhibition of active sites (% control): β2; KMS-12-BM, 1.0 µM LU-005, 1 h [7] of 29%, an Inhibition of active sites (% control): β2; KMS-18, 0.037 µM LU-005, 1 h [7] of -13% and an Inhibition of active sites (% control): β2; KMS-18, 0.11 µM LU-005, 1 h [7] of 12%. For the same substance, the Inhibition of active sites (% control): β2; KMS-18, 0.33 µM LU-005, 1 h [7] was 24%, the Inhibition of active sites (% control): β2; KMS-18, 1.0 µM LU-005, 1 h [7] was 38% and the Inhibition of active sites (% control): β2; KMS-18, 3.0 µM LU-005, 1 h [7] was 50%. The Inhibition of active sites (% control): β2; KMS-18, 9.0 µM LU-005, 1 h [7] was 62%, the Inhibition of active sites (% control): β2; MM1.R, 0.004 µM LU-005, 1 h [7] was 6.5% and the Inhibition of active sites (% control): β2; MM1.R, 0.011 µM LU-005, 1 h [7] was 5%. The Inhibition of active sites (% control): β2; MM1.R, 0.043 µM LU-005, 1 h [7] was 5%, the Inhibition of active sites (% control): β2; MM1.R, 0.11 µM LU-005, 1 h [7] was 23% and the Inhibition of active sites (% control): β2; NCI-H929, 0.0014 µM LU-005, 1 h [7] was -9%. For the same substance, the Inhibition of active sites (% control): β2; NCI-H929, 0.004 µM LU-005, 1 h [7] was -13%, the Inhibition of active sites (% control): β2; NCI-H929, 0.011 µM LU-005, 1 h [7] was -6% and the Inhibition of active sites (% control): β2; NCI-H929, 0.043 µM LU-005, 1 h [7] was 6%. For the same substance, the Inhibition of active sites (% control): β2; NCI-H929, 0.11 µM LU-005, 1 h [7] was 11%, the Inhibition of active sites (% control): β2; RPMI-8226, 0.012 µM LU-005, 1 h [7] was -21% and the Inhibition of active sites (% control): β2; RPMI-8226, 0.037 µM LU-005, 1 h [7] was 1%. For the same substance, the Inhibition of active sites (% control): β2; RPMI-8226, 0.11 µM LU-005, 1 h [7] was 3%, the Inhibition of active sites (% control): β2; RPMI-8226, 0.33 µM LU-005, 1 h [7] was 13% and the Inhibition of active sites (% control): β2; RPMI-8226, 1.0 µM LU-005, 1 h [7] was 22%.
